Two molecules from paper PMC4877109, “Structure of the Cellulose Synthase Complex of Gluconacetobacter hansenii at 23.4 Å Resolution” (PLoS ONE, 2016) can be followed below.

Data set [1] concerns the target T1, AcsAB complex (AcsA + AcsB, cellulose synthase) (Novacetimonas hansenii, UniProt Q76KJ8).
T1 construct: acsAB fusion polypeptide with N-terminal His12 tag, processed in vivo into AcsA (83 kDa) and AcsB (93 kDa); homologous expression in G. hansenii (pUCD2CDHisAcsAB with acsCD); LFCE14 detergent, Co-NTA and size exclusion; ~180 kDa monomeric complex
Description: UDP-14C-glucose incorporation with and without c-di-GMP. The data set is classed as biochemical. The settings on record: allosteric activator (30 μM); 20 mM MgCl2, 2 mM UDP-glucose, pH 7.5, 30 °C.

Substrate in data set [2]: O=c1ccn([C@@H]2O[C@H](CO[P@@](=O)(O)O[P@@](=O)(O)O[C@H]3O[C@H](CO)[C@@H](O)[C@H](O)[C@H]3O)[C@@H](O)[C@H]2O)c(=O)[nH]1
The experiment in a line: UDP-14C-glucose incorporation into insoluble glucan, scintillation counting, Michaelis-Menten fit. The conditions noted are these: Mg2+ 20 mM, 30 μM c-di-GMP, 5 mM cellobiose, 20 mM Tris-HCl pH 7.5, 100 mM NaCl, 30 °C, LFCE14 detergent-purified complex, labelled compound as tracer. The data set is classed as biochemical, Novacetimonas hansenii.

T1 sequence (Q76KJ8 742-1550, one chain of several): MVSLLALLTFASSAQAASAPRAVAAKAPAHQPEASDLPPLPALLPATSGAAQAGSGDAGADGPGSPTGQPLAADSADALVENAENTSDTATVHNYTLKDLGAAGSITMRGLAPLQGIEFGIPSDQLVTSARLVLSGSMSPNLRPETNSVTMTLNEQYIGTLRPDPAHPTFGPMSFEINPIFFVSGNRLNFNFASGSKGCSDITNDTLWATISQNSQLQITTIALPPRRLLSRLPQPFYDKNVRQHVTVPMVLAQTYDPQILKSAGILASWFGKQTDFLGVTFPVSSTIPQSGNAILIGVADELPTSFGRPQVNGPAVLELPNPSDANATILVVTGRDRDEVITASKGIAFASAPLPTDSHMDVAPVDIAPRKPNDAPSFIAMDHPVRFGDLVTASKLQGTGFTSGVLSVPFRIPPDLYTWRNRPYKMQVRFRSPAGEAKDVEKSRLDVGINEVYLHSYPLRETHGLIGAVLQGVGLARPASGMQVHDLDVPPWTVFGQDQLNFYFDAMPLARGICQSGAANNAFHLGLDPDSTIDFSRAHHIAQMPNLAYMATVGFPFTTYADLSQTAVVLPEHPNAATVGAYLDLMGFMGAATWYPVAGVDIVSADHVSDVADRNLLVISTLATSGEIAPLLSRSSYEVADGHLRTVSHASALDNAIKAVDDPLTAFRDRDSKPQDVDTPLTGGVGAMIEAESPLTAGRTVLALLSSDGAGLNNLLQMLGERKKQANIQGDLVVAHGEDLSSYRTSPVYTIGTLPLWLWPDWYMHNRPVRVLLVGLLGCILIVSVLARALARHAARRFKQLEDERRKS

Consider `Nc1nc2c(ncn2[C@@H]2O[C@@H]3COP(=O)(O)O[C@H]4[C@@H](O)[C@H](n5cnc6c(=O)[nH]c(N)nc65)O[C@@H]4COP(=O)(O)O[C@H]3[C@H]2O)c(=O)[nH]1` [c-di-GMP], for which the “UDP-14C-glucose incorporation with and without c-di-GMP” value in data set [1] was “when c-di-GMP was omitted, the protein was not able to catalyze label incorporation into cellulose”.

B1: AcsAB complex (AcsA + AcsB, cellulose synthase) (Novacetimonas hansenii) (protein)
chain: MPEVRSSTQSESGMSQWMGKILSIRGAGLIIGVFGLCALIAATSVTLPPEQQLIVAFVCVVIFFIVGHKPSRRSQIFLEVLSGLVSLRYLTWRLTETLSFDTWLQGLLGTMLLVAELYALMMLFLSYFQTIAPLHRAPLPLPPNPDEWPTVDIFVPTYNEELSIVRLTVLGSLGIDWPPEKVRVHILDDGRRPEFAAFAAECGANYIARPTNEHAKAGNLNYAIGHTDGDYILIFDCDHVPTRAFLQLTMGWMVEDPKIALMQTPHHFYSPDPFQRNLSAGYRTPPEGNLFYGVVQDGNDFWDATFFCGSCAILRRTAIEQIGGFATQTVTEDAHTALKMQRLGWSTAYLRIPLAGGLATERLILHIGQRVRWARGMLQIFRIDNPLFGRGLSWGQRLCYLSAMTSFLFAVPRVIFLSSPLAFLFFGQNIIAASPLALLAYAIPHMFHAVGTASKINKGWRYSFWSEVYETTMALFLVRVTIVTLLSPSRGKFNVTDKGGLLEKGYFDLGAVYPNIILGLIMFGGLARGVYELSFGHLDQIAERAYLLNSAWAMLSLIIILAAIAVGRETQQKRNSHRIPATIPVEVANADGSIIVTGVTEDLSMGGAAVKMSWPAKLSGPTPVYIRTVLDGEELILPARIIRAGNGRGIFIWTIDNLQQEFSVIRLVFGRADAWVDWGNYKADRPLLSLMDMVLSVKGLFRSSGDIVHRSSPTKPSAGNALSDDTNNPSRKERVLKGTVK
notes: acsAB fusion polypeptide with N-terminal His12 tag, processed in vivo into AcsA (83 kDa) and AcsB (93 kDa); homologous expression in G. hansenii (pUCD2CDHisAcsAB with acsCD); LFCE14 detergent, Co-NTA and size exclusion; ~180 kDa monomeric complex
As for B1, in data set [2], the Km is 0.12 (± 0.03) mM and the kcat is recorded as 2.9 molecules per complex per second.
